Results taken from patent US20250051406, “CELL TARGETING COMPOSITIONS AND METHODS” (The Trustees of Indiana University, published 2025).

Biological target: ZFP K-Ras G12D (six-finger zinc finger protein) (synthetic construct)
Assay: dot blot, 400 ng gDNA of PANC-1 (heterozygous G12D), ZFP 10 ug/ml, TBS-T/milk, RT; much stronger than WT or G13D gDNA
Conditions: tags: N-terminal 3xFLAG, NLS; expressed in E. coli from pET-30a(+)
Experimental: Genomic DNA (gDNA) was extracted from cancer cells using QIAamp DNA Mini Kit (51104, Qiagen Sciences, Inc., Germantown, MD). Concentration of the gDNA was measured by Qubit dsDNA BR Assay kit (Q32853, Invitrogen™, Thermo Fisher Scientific Inc., Waltham, MA) and adjusted to the same contraction. 400 ng of each gDNA was spotted onto a nitrocellulose membrane (15356, Sigma-Aldrich, Burlington, MA) using narrow-mouth pipette tip. Membranes were allowed to dry and then blocked by soaking in 5% non-fat milk in tris-buffered saline tween (TBS-T) at room temperature (RT) for 1 hour. Blocked membranes were incubated with ZFP ([…]) dissolved in milk/TBS-T for 1 hour at RT. The membranes were washed three times with TBS-T and incubated with anti-FLAG@antibody conjugated with horseradish peroxidase (HRP) (86861S, Cell Signaling Technology, Inc., Danvers, MA). The membranes were then washed three times with TBS-T (15 min×1, 5 min×2) and once with TBS (5 min). The signals were developed with enhanced chemiluminescent (ECL) horseradish peroxidase (HRP) substrate (SuperSignal West Pico PLUS Chemiluminescent Substrate, Catalog #34580, Thermo Fisher Scientific) and captured using the ChemiDoc MP Imaging System (12003154, Bio-Rad Laboratories, Hercules, CA).
FIG. 4 depicts dot blot results showing that the ZFPs from Example 3 can distinguish DNA sequences with one or two point mutations in vitro. […]

Sequence of ZFP K-Ras G12D (six-finger zinc finger protein) (synthetic construct) (chain, as listed by the source G12D G12D): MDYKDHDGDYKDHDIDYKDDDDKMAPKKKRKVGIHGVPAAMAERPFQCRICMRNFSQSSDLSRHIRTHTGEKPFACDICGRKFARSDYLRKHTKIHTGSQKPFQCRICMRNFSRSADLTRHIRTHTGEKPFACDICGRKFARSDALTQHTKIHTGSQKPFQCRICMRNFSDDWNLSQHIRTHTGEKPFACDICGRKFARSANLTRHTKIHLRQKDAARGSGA

B1: KRAS G12D target site (codon 12 GAT) (dsDNA)
DNA 1: GAGCTGATGGCGTAGGCA
DNA 2: TGCCTACGCCATCAGCTC
  binding result: binds
